What is called Km is the concentration of substrate that gives half-maximal velocity.

Substrate in data set [1]: N[C@H]1[C@@H](OP(=O)(O)O)O[C@H](CO)[C@@H](O)[C@@H]1O
The experiment in a line: purified protein. Particulars: ATP co-substrate, Mg2+, pH 8.0, 37°C, no activator.

Substrate in data set [2]: Nc1ncnc2c1ncn2[C@@H]1O[C@H](COP(=O)(O)OP(=O)(O)OP(=O)(O)O)[C@@H](O)[C@H]1O
The experiment in a line: purified protein. Particulars: 1 mM GlcN-1P co-substrate, Mg2+, pH 8.0, 37°C.

B1: G. stearothermophilus ADP-Glc PPase GlgC/GlgD (Geobacillus stearothermophilus) (protein)
chain: MKKKCIAMLLAGGQGSRLRSLTTNIAKPAVPFGGKYRIIDFTLSNCTNSGIDTVGVLTQYQPLLLHSYIGIGSAWDLDRRNGGVTVLPPYSVSSGVKWYEGTANAVYQNINYIEQYNPDYVLVLSGDHIYKMDYQHMLDYHIAKQADVTISVIEVPWEEASRFGIMNTNEEMEIVEFAEKPAEPKSNLASMGIYIFNWPLLKQYLQIDNANPHSSHDFGKDVIPMLLREKKRPFAYPFEGYWKDVGTVKSLWEANMDLLDENNELDLFDRSWRIYSVNPNQPPQYISPEAEVSDSLVNEGCVVEGTVERSVLFQGVRIGKGAVVKESVIMPGAAVSEGAYVERAIVTPDSIIPPHSSVCPEDADDVVLVTAEWLKQSNEETARKDEA
Take B1: the results for the Km in the data set “purified protein [1]” and in “purified protein [2]” were 400 µM and 210 µM, respectively.

For the origin of these results see paper PMC9093745, “Carbohydrate Metabolism in Bacteria: Alternative Specificities in ADP-Glucose Pyrophosphorylases Open Novel Metabolic Scenarios and Biotechnological Tools” (Frontiers in Microbiology, 2022).
